Measurements: publication PMC8456102

Biological target: native Tyr-p3 (group 3 allergen of Tyrophagus putrescentiae) (Tyrophagus putrescentiae) (UniProt C6ZDB5)
Chain of UniProt C6ZDB5 (C6ZDB5 34-285): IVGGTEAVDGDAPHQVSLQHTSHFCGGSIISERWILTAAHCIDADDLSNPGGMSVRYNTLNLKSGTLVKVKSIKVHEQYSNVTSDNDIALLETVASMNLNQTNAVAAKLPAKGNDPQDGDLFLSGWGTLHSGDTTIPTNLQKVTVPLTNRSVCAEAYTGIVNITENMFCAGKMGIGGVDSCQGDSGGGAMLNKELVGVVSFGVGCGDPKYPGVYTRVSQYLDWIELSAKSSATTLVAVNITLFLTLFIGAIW

inhibition of the protease activity of nTyr-p3 on the substrate TAME (OD 405 nm; sample pretreated with 10 mM inhibitor for 60 min at 25°C): 88%
Substance: soybean trypsin inhibitor (from UniProt P01070 25-205) (natural protein)
